± gives the standard deviation of the averaged measurements.
What follows are sequences tested on Saccharomyces cerevisiae (assay: protein stability index of tFT-peptide fusion (C-terminal peptide) (PSI (0-1 scale)); higher = more stable (slower turnover)). Conditions: genetic background: cdc34-1; temperature: 37 C.
Method: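 MPS profiling in S. cerevisiae of the tFT-X12 degron library: putative degron peptides plus stable controls, 12 aa, fused to the C-terminus of a sfGFP-mCherry timer. Cells are FACS-sorted into 8 mCherry/sfGFP bins and deep-sequenced. PSI runs from 0 (unstable) to 1 (stable). Backgrounds are wild type, das1Δ and doa10Δ at 30 °C, and wild type, das1Δ, cdc34-1 and cdc53-1 at 37 °C; 2-3 technical replicates each.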
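Note: PSI is a weighted mean of sequencing reads over stability bins, variants kept only with over 10 reads, mCherry proximal and sfGFP distal, peptide attached via GGGS linker.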

Sequence | protein stability index
GVSLRVFVVSVC | 0.137 ± 0.02

Same assay, conditions: genetic background: cdc53-1; temperature: 37 C

Sequence | protein stability index
FCSLLVLLFFGV | 0.4792 ± 0.0038
FELSVSVFQSVV | 0.388 ± 0.0039
FERVEYEVLGIG | 0.441 ± 0.037
FFASAAVHLVTC | 0.521 ± 0.032
FFLLLVGFSVLG | 0.265 ± 0.012
FFLLTCFLLPSV | 0.512 ± 0.013
FFLSFRLFSILL | 0.359 ± 0.021
FFLVILSWWVGE | 0.225 ± 0.056
FFMLWCRVLLRL | 0.102 ± 0.017
FFVFPFGLLFLS | 0.515 ± 0.013
FFVKGFRLLVFQ | 0.481 ± 0.013
FIGVLVYICREG | 0.359 ± 0.084
FITFLVFVGFFL | 0.421 ± 0.0078
FKKIKGKIEKKN | 0.897 ± 0.023
FKWVSRIRLLDA | 0.566 ± 0.049
FKYRVPLVGVVK | 0.317 ± 0.033
FLDYLLFIFFFF | 0.519 ± 0.041
FLFQYLCIISSL | 0.166 ± 0.037
FLGPMRVLVSSV | 0.606 ± 0.032
FLLCRVFVLLRS | 0.0441 ± 0.015
FLLPWLRPVFFF | 0.607 ± 0.055
FLLVGLLIVGCG | 0.272 ± 0.0014
FLSRVVLVVLLV | 0.333 ± 0.006
FLVIILFFLYMR | 0.0943 ± 0.015
FLYSVLLICKFI | 0.258 ± 0.016
FMANRYICQKTL | 0.731 ± 0.018

Sequence | protein stability index
FPCRNFMVFFCF | 0.442 ± 0.008
FPFPLSSFLLLY | 0.401 ± 0.018
FRSMFLFLNLLF | 0.3523 ± 0.00055
FSFEGVLVPLLV | 0.301 ± 0.043
FSFFLYFFLLLF | 0.304 ± 0.0072
FSGRYFLLFRFL | 0.28 ± 0.0032
FSLLTWPFVFLV | 0.0782 ± 0.0059
FVCWGSLILCGG | 0.1833 ± 0.0012
FVFAMSECIVLS | 0.318 ± 0.0043
FVLWLIYVDLFF | 0.234 ± 0.013
FVSHRRFSLFLY | 0.691 ± 0.011
FVVLVFMLGSVC | 0.379 ± 0.029
FVVVGLGLLCLA | 0.565 ± 0.011
FVWVVRMLVFVP | 0.2493 ± 0.00099
FWHGRCPGLYLV | 0.639 ± 0.018
FYIRFYVYSWLF | 0.441 ± 0.011
FYLSSCFLFLRF | 0.136 ± 0.046
GAVRRWGGVSFV | 0.707 ± 0.026
GDLEFCCLIIVL | 0.556 ± 0.072
GELPGELYKFWL | 0.7774 ± 0.005
GFFLLSFLFFVR | 0.181 ± 0.037
GFGDKVPWRWVI | 0.759 ± 0.022
GFSVFSHSVWVR | 0.0797 ± 0.0059
GGICVVAYWRLA | 0.518 ± 0.006
GGMGLWCCVSVG | 0.6779 ± 0.0056
GGRSLYAILCAV | 0.393 ± 0.018

Sequence | protein stability index
GGSLWLVHLKTI | 0.761 ± 0.038
GGTFWDGLVLVH | 0.418 ± 0.03
GGYGAGLRSPLF | 0.755 ± 0.013
GINHLSLKLRLF | 0.723 ± 0.017
GIVSGEGAVGVG | 0.511 ± 0.025
GIVYFDQWISVS | 0.538 ± 0.082
GLACNPQLLRWT | 0.7433 ± 0.0064
GLFGFASPPPPS | 0.7583 ± 0.0047
GLLAEPALLLLS | 0.699 ± 0.027
GLLLLGIRLKWG | 0.274 ± 0.037
GLLLRLRNLFCM | 0.8043 ± 0.0034
GLVVVVRLQYSP | 0.424 ± 0.02
GLYFFVVRIFKV | 0.345 ± 0.075
GPGTWLFCFVRF | 0.55 ± 0.0069
GQFFRCWRRRLC | 0.709 ± 0.0072
GRGLRVCWVWSG | 0.7084 ± 0.0069
GRHRRIRYVKTS | 0.723 ± 0.0099
GSLFANYNLKLF | 0.724 ± 0.017
GSVHLTKERHLV | 0.74 ± 0.03
GVAILFTFFRLL | 0.526 ± 0.0023
GVGHAWHYFCVC | 0.7347 ± 0.0032
GVLIFLSFQPIA | 0.617 ± 0.023
GVLRMAPGRVMC | 0.704 ± 0.0083
GVQFSVKWVKLG | 0.7 ± 0.0093
GVSLRVFVVSVC | 0.162 ± 0.015

Same assay, conditions: genetic background: das1 deletion; temperature: 30 C

Sequence | protein stability index
FCSLLVLLFFGV | 0.334 ± 0.018
FELSVSVFQSVV | 0.374 ± 0.023
FERVEYEVLGIG | 0.394 ± 0.0079
FFASAAVHLVTC | 0.435 ± 0.02
FFLLLVGFSVLG | 0.238 ± 0.024
FFLLTCFLLPSV | 0.346 ± 0.036
FFLSFRLFSILL | 0.342 ± 0.021
FFLVILSWWVGE | 0.197 ± 0.036
FFMLWCRVLLRL | 0.215 ± 0.014
FFVFPFGLLFLS | 0.433 ± 0.023
FFVKGFRLLVFQ | 0.421 ± 0.04
FIGVLVYICREG | 0.254 ± 0.017
FITFLVFVGFFL | 0.313 ± 0.022
FKKIKGKIEKKN | 0.609 ± 0.042
FKWVSRIRLLDA | 0.51 ± 0.023
FKYRVPLVGVVK | 0.245 ± 0.029
FLDYLLFIFFFF | 0.419 ± 0.032
FLFQYLCIISSL | 0.133 ± 0.046
FLGPMRVLVSSV | 0.424 ± 0.03
FLLCRVFVLLRS | 0.13 ± 0.037
FLLPWLRPVFFF | 0.567 ± 0.013
FLLVGLLIVGCG | 0.206 ± 0.027
FLSRVVLVVLLV | 0.245 ± 0.029
FLVIILFFLYMR | 0.176 ± 0.042
FLYSVLLICKFI | 0.224 ± 0.037
FMANRYICQKTL | 0.635 ± 0.026

Sequence | protein stability index
FPCRNFMVFFCF | 0.43 ± 0.035
FPFPLSSFLLLY | 0.41 ± 0.032
FRSMFLFLNLLF | 0.391 ± 0.048
FSFEGVLVPLLV | 0.288 ± 0.036
FSFFLYFFLLLF | 0.31 ± 0.026
FSGRYFLLFRFL | 0.341 ± 0.0075
FSLLTWPFVFLV | 0.252 ± 0.041
FVCWGSLILCGG | 0.19 ± 0.028
FVFAMSECIVLS | 0.205 ± 0.025
FVLWLIYVDLFF | 0.196 ± 0.048
FVSHRRFSLFLY | 0.602 ± 0.019
FVVLVFMLGSVC | 0.254 ± 0.044
FVVVGLGLLCLA | 0.362 ± 0.027
FVWVVRMLVFVP | 0.187 ± 0.025
FWHGRCPGLYLV | 0.607 ± 0.012
FYIRFYVYSWLF | 0.304 ± 0.051
FYLSSCFLFLRF | 0.311 ± 0.012
GAVRRWGGVSFV | 0.643 ± 0.011
GDLEFCCLIIVL | 0.302 ± 0.018
GELPGELYKFWL | 0.664 ± 0.022
GFFLLSFLFFVR | 0.212 ± 0.023
GFGDKVPWRWVI | 0.657 ± 0.026
GFSVFSHSVWVR | 0.19 ± 0.032
GGICVVAYWRLA | 0.388 ± 0.034
GGMGLWCCVSVG | 0.528 ± 0.027
GGRSLYAILCAV | 0.277 ± 0.028

Sequence | protein stability index
GGSLWLVHLKTI | 0.633 ± 0.035
GGTFWDGLVLVH | 0.32 ± 0.028
GGYGAGLRSPLF | 0.6761 ± 0.0025
GINHLSLKLRLF | 0.631 ± 0.014
GIVSGEGAVGVG | 0.468 ± 0.0097
GIVYFDQWISVS | 0.393 ± 0.022
GLACNPQLLRWT | 0.653 ± 0.018
GLFGFASPPPPS | 0.677 ± 0.016
GLLAEPALLLLS | 0.618 ± 0.0073
GLLLLGIRLKWG | 0.208 ± 0.015
GLLLRLRNLFCM | 0.748 ± 0.019
GLVVVVRLQYSP | 0.329 ± 0.017
GLYFFVVRIFKV | 0.221 ± 0.039
GPGTWLFCFVRF | 0.432 ± 0.029
GQFFRCWRRRLC | 0.649 ± 0.03
GRGLRVCWVWSG | 0.605 ± 0.019
GRHRRIRYVKTS | 0.655 ± 0.014
GSLFANYNLKLF | 0.648 ± 0.06
GSVHLTKERHLV | 0.648 ± 0.032
GVAILFTFFRLL | 0.456 ± 0.025
GVGHAWHYFCVC | 0.608 ± 0.018
GVLIFLSFQPIA | 0.429 ± 0.03
GVLRMAPGRVMC | 0.598 ± 0.024
GVQFSVKWVKLG | 0.616 ± 0.014
GVSLQLHVAVLI | 0.483 ± 0.053
GVSLRVFVVSVC | 0.219 ± 0.02
